Source: patent US20230212549A1 (3B PHARMACEUTICALS, published 2023)
Numbered stars: 1 amine (or outer) side, 2 acyl side, 3 side chain; on linkers, the order of the positions; unused ones are H or OH. Bridge positions count the residues as written; N and C are the ends. Square brackets hold non-standard residues; d marks the D form. Primed or numbered codes have the meaning given here. * marks the point of attachment. tMeBn(LuDOTA-AET) = 1,3,5-trimethylbenzylidene (from 1,3,5-tris(bromomethyl)benzene) bridge with two thioethers to the Cys, its third CH2 carries AET (2-aminoethanethiol, attached through S), whose amine is acylated by DOTA complexing lutet, O=C([O-])CN1CCN(CC(=O)[O-])CCN(CC(=O)NCCSCc2cc(C[*:1])cc(C[*:2])c2)CCN(CC(=O)[O-])CC1.[Lu+3]; Ttds″ = 1,13-diamino-4,7,10-trioxatridecan-succinamic acid spacer, O=C(CCC(=O)[*:2])NCCCOCCOCCOCCCN[*:1]; TBMB(SCH2CH2NH-DOTA) = O=C(O)CN1CCN(CC(=O)O)CCN(CC(=O)NCCSCc2cc(C[*:1])cc(C[*:2])c2)CCN(CC(=O)O)CC1; Ttds = 1,13-diamino-4,7,10-trioxatridecan-succinamic acid, O=C(CCC(=O)[*:2])NCCCOCCOCCOCCCN[*:1]; 3MeBn = 3-Methylbenzylidene (m-xylylene thioether bridge from α,α′-dibromo-m-xylene); N4Ac = 6-Carboxy-1,4,8,11-tetraazaundecane, an N4-chelator, NCCNCC(CNCCN)C(=O)*; DOTA = O=C(O)CN1CCN(CC(=O)O)CCN(CC(=O)*)CCN(CC(=O)O)CC1; nBu‑CAyl = n-butylaminocarbonyl, CCCCNC(=O)*; mXylylene = c1cc(C[*:1])cc(C[*:2])c1; AF488 = Alexa Fluor 488 label; Nle = CCCC[C@H](N)C(=O)O; Hexanoyl = CCCCCC(=O)*; AEEA = NCCOCCOCC(=O)O; GABA = NCCCC(=O)O; Sar = CNCC(=O)O

B1: N4Ac-Ttds-Nle-[Cys-(3MeBn)-Pro-Pro-Thr-Glu-Phe-Cys]-OH (peptide)
peptide: N4Ac-[Ttds″][Nle]CPPTEFC-OH
modifications: linker 3-9 via mXylylene
SMILES: CCCC[C@H](NC(=O)CCC(=O)NCCCOCCOCCOCCCNC(=O)C(CNCCN)CNCCN)C(=O)N[C@H]1CSCc2cccc(c2)CSC[C@@H](C(=O)O)NC(=O)[C@H](Cc2ccccc2)NC(=O)[C@H](CCC(=O)O)NC(=O)[C@H]([C@@H](C)O)NC(=O)[C@@H]2CCCN2C(=O)[C@@H]2CCCN2C1=O
notes: also called 3BP-4161
B2: Hex-[Cys(tMeBn(LuDOTA-AET))-Pro-Pro-Thr-Gln-Phe-Cys]-Asp-Gab-Arg-Ttds-Lys(AF488)-NH2 (peptide)
peptide: Hexanoyl-CPPTQFCD[GABA]R[Ttds″]K(AF488)-NH2
modifications: linker 1-7 via tMeBn(LuDOTA-AET); not fully specified (residue 1); printed as Hex-[Cys(tMeBn(LuDOTA-AET))-Pro-Pro-Thr-Gln-Phe-Cys]-Asp-Gab-Arg-Ttds-Lys(AF488)-NH2; also: DOTA complexing lutetium
notes: also called 3BP-4372
B3: N4Ac-O2Oc-Nle-[Cys-(3MeBn)-Pro-Pro-Thr-Glu-Phe-Cys]-OH (peptide)
peptide: N4Ac-[AEEA][Nle]CPPTEFC-OH
modifications: linker 3-9 via 3MeBn
notes: also called 3BP-4228
B4: Hex-[Cys-(tMeBn(H-O2Oc-PP))-Pro-Pro-Thr-Gln-Phe-Cys]-Asp-NH2 (peptide)
peptide: Hexanoyl-CPPTQFCD-NH2
modifications: linker 1-7 via tMeBn(H-O2Oc-PP)
notes: also called 3BP-3967
B5: Hex-[Cys(tMeBn(DOTA-AET))-Pro-Pro-Thr-Gln-Phe-Cys]-Asp-Ttds-Lys(DOTA)-NH2 (peptide)
peptide: Hexanoyl-CPPTQFCD[Ttds″]K(DOTA)-NH2
modifications: linker 1-7 via TBMB(SCH2CH2NH-DOTA); not fully specified (residue 1); printed as Hex-[Cys(tMeBn(DOTA-AET))-Pro-Pro-Thr-Gln-Phe-Cys]-Asp-Ttds-Lys(DOTA)-NH2
notes: also called 3BP-4391
B6: Hex-[Cys(tMeBn(DOTA-PP))-Nmg-Pro-Thr-Gln-Phe-Cys]-OH (peptide)
peptide: Hexanoyl-C[Sar]PTQFC-OH
modifications: bridge 1-7; not fully specified (residue 1, bridges); printed as Hex-[Cys(tMeBn(DOTA-PP))-Nmg-Pro-Thr-Gln-Phe-Cys]-OH
notes: also called 3BP-3771
B7: nBu-CAyl-[Cys(tMeBn(DOTA-AET))-Nmg-Pro-Thr-Gln-Phe-Cys]-OH (peptide)
peptide: {nBu‑CAyl}-C[Sar]PTQFC-OH
modifications: linker 1-7 via TBMB(SCH2CH2NH-DOTA)
SMILES: CCCCNC(=O)N[C@H]1CSCc2cc(CSCCNC(=O)CN3CCN(CC(=O)O)CCN(CC(=O)O)CCN(CC(=O)O)CC3)cc(c2)CSC[C@@H](C(=O)O)NC(=O)[C@H](Cc2ccccc2)NC(=O)[C@H](CCC(N)=O)NC(=O)[C@H]([C@@H](C)O)NC(=O)[C@@H]2CCCN2C(=O)CN(C)C1=O
notes: also called 3BP-4607
B8: Hex-[Cys(tMeBn(DOTA-AET))-Nmg-Pro-Thr-Gln-Phe-Cys]-NH2 (peptide)
peptide: Hexanoyl-C[Sar]PTQFC-NH2
modifications: linker 1-7 via TBMB(SCH2CH2NH-DOTA)
SMILES: CCCCCC(=O)N[C@H]1CSCc2cc(CSCCNC(=O)CN3CCN(CC(=O)O)CCN(CC(=O)O)CCN(CC(=O)O)CC3)cc(c2)CSC[C@@H](C(N)=O)NC(=O)[C@H](Cc2ccccc2)NC(=O)[C@H](CCC(N)=O)NC(=O)[C@H]([C@@H](C)O)NC(=O)[C@@H]2CCCN2C(=O)CN(C)C1=O
notes: also called 3BP-3744
B9: Hex-[Cys-(tMeBn(H-O2Oc-AET))-Pro-Pro-Thr-Gln-Phe-Cys]-Asp-NH2 (peptide)
peptide: Hexanoyl-CPPTQFCD-NH2
modifications: linker 1-7 via tMeBn(H-O2Oc-AET)
notes: also called 3BP-4003
B10: DOTA-Ttds-Nle-[Cys(3MeBn)-Pro-Pro-Thr-Gln-Phe-Cys]-Asp-Ttds-Lys(DOTA)-NH2 (peptide)
peptide: {DOTA}-[Ttds][Nle]CPPTQFCD[Ttds]K(DOTA)-NH2
modifications: linker 3-9 via mXylylene
SMILES: CCCC[C@H](NC(=O)CCC(=O)NCCCOCCOCCOCCCNC(=O)CN1CCN(CC(=O)O)CCN(CC(=O)O)CCN(CC(=O)O)CC1)C(=O)N[C@H]1CSCc2cccc(c2)CSC[C@@H](C(=O)N[C@@H](CC(=O)O)C(=O)NCCCOCCOCCOCCCNC(=O)CCC(=O)N[C@@H](CCCCNC(=O)CN2CCN(CC(=O)O)CCN(CC(=O)O)CCN(CC(=O)O)CC2)C(N)=O)NC(=O)[C@H](Cc2ccccc2)NC(=O)[C@H](CCC(N)=O)NC(=O)[C@H]([C@@H](C)O)NC(=O)[C@@H]2CCCN2C(=O)[C@@H]2CCCN2C1=O
notes: also called 3BP-4393

Tests used:
[1] = biological target: T1, human fibroblast activation protein (FAP) on WI-38 fibroblasts (human, UniProt Q12884 1-760); experiment: competitive FACS, WI-38 cells, Cy5-labeled peptide as competitor
T1 construct: FAP-expressing human WI-38 fibroblasts (ECACC)

[2] = biological target: T2, Recombinant human FAP (R&D systems, #3715-SE) (human, UniProt Q12884 26-760); experiment: cell-based or functional assay
[3] = biological target: T2, Recombinant human FAP (R&D systems, …); experiment: SPR (Biacore T200), FAP captured on anti-FAP antibody, single cycle kinetics

Row | Binder | pIC50 Category (FACS) [1] [pIC50] | pIC50 Category (Activity) [2] [pIC50] | pKD Category [3] [pKD]
1 | B1 | > 8 | > 8 | > 8
2 | B2 | > 8 | > 8 | –
3 | B3 | ≤ 6 | – | –
4 | B4 | > 8 | > 8 | –
5 | B5 | > 8 | > 8 | –
6 | B6 | > 8 | > 8 | –
7 | B7 | > 8 | > 8 | –
8 | B8 | > 8 | > 8 | –
9 | B9 | > 8 | > 8 | –
10 | B10 | > 8 | > 8 | –
